Experimental data from the DeepSol protein solubility set.

Experiment: soluble on expression in E. coli; label from the status in PepcDB or PDB records

Sequence	soluble on expression in E. coli
MAHHHHHHMLNALGITSPRHDALIAKFLKAMAVEGGASEATKRDEAVDAARFVYVFSTVWRAAVTHRTPRSPVSTRVSAPPRSPPAAQQHGNSPDGATMRHAYSREVSCRGAPPSHMKAAPATEVGSSGGSGSAVSARSSSSPSAVWSSSEGGEGAAHSHTESASPLTSCGGGDERRSDAAESDADFLRTNISDASSSIPDSSEKPQAGVRSEELSPMSVEPSAGLDPSPEPCNPGEPVIITSARSSVTPRTHHCSPFAAASRLGSASVSRSRRMSSSLRVIPSDSHLLSSTTSRELKRATKRVPGGLMRECTFKPVINSVYEQSPVSFSSTAIVQKRKPASTAPPTFQPNTQQFHQARDSLARWTRQPIKDNSDYRGEAAANPLATGVETAVRRMIAARQQRQRSQSPRPSLQKGSHHSAPAPQSTVRAPVAHPRKPLLYVDVDLPQGQRDRLALYTGDDVQDVAQRFSILHGLSESLCQRLETALTAELCALSVGKAA	not soluble
MKKDWQEQLPLNHIRDIKTVSGGDVNEAFKVTTEDDVYFLLVQRNRDKSFYAAEIAGLNAFEEAGVTAPHVIDSGEINGDAFLILSYLDEGTTGSQRELGQLVAKMHSQQQSDGKFGFDLPHEGGDISFDNTWSDSWIEIFVERRMDHLRDELMRKGLWNDEDNKVYEQVRTVMVNELENHNSNPSLLHGDLWGGNYMFLTDGSPALFDPAPFYGDREFDLGITTVFGGFTREFYDEYEKHYPLGKGSRKRLEFYRLYLFMVHLLKFGGMYASSVNRSMDEILALEHHHHHH	soluble
RMALSVLASSKEELFMPLLSQEAAHPDEWAGRLKNLSVNAEHAVTASLKNAEKAAVILGAEVQNHPDYAAVYAAAQELADATGAVLGILPQAANSVGADVLNVNSGKSVVEMVNAPKQAVLLLNVEPEIDTADGAKAVAALKQAKSVMAFTPFVSETLLDVCDVLLPIAPFTETSGSFINMEGRLQSFHGVVQGFGDSRPLWKVLRVLGNLFDLKGFEYHDTAAILKDALDVESLPSKLDNRNAWTGEGVQTTSDRLVRVGGVGIYHTDSIVRRSAPLQETSHAAVPAARVNPNTLARLGLQDGQTAVAKQNGASVSVAVKADAGLPENVVHLPLHTENAALGALMDTIELAGA	not soluble
MIRTLELAPHIEGGYFRQTKKASDTINLAGKGRALYTSIYFLLEETNPSHFHRLTADEIWYFHAGSPLTVHMITADGHYEAVTLGLDISKGQQLHYCVPKGTIWGSTVDKDDALVSCLVAPGFEFEDFELFERVDLLATYPEHKEMIERLTRYLEHHHHHH	not soluble
MGSDKIHHHHHHMIRSTLSSWREYLTPITHKSTFLTTGQITPEEFVQAGDYLCHMFPTWKWNEESSDISYRDFLPKNKQFLIIRKVPCDKRAEQCVEVEGPDVIMKGFAEDGDEDDVLEYIGSETEHVQSTPAGGTKDSSIDDIDELIQDMEIKEEDENDDTEEFNAKGGLAKDMAQERYYDLYIAYSTSYRVPKMYIVGFNSNGSPLSPEQMFEDISADYRTKTATIEKLPFYKNSVLSVSIHPCKHANVMKILLDKVRVVRQRRRKELQEEQELDGVGDWEDLQDDIDDSLRVDQYLIVFLKFITSVTPSIQHDYTMEGW	not soluble
MARWERIVDGVKSIALMRKKIITRGKRIALFVDGPNILRKELGIHLEDIVEALSKLGNIRVAKVILNQYAPQSLIEAVSNQGFEPVIVAGEIGVKMAVEAMREVYNPNIDMIALATRNTEFVPIILKAKEKGKETAIIGVEHGLSSALKHAADYVIILKPRGEKIEERHHEDSEERREGGRGA	not soluble
MKAFDQVNHSLLLHKLHDFGINPLFCNWFHDFLSSRTFSVKVNNHIDPNIHPIPSGVPQGSVSGPFLFLIFINSLLLSLPPTISCSAFADDLKVYSHSPPLIQTTIDLITAWSENNKLPLAHSKTCLLHLGKKNPKTVYKINNLPISPSNVARDLGILTDSKLTFKTHIKKIVFLALLRCKQLLKSFKSLCPEFCCNLFKTYILPLIEYGSAVYSPKPSSSLSTLLEKPLRWYSQKVLQKCNISYSSYNDRLKSLNLHSIRHRRLKSKLILLYKFCCGTSFLPQKETYFKLSTSSRRPMRIICHNPSSNNFFSDTISFWNAITNNCDTFLSPIHFENLVDNSITRL	not soluble
MSLEREVCVNQLLKFLDSIRGRLSFRMVERLFSRGLDENPIFEAISKSGALAKNVIIILGGRGCGKTLVMRYIKHYFEPEGWDYKYFSGDQFKEADAQELMKIISETRDLLENSEDYKVIVGIDDVVEASEAIRDTIKNQLVPLVVDYAGRIKLVISGQSERVVGTTTVLHILEDTLGRSPKAEMLFGEYPGEGHHHHHH	soluble
MDESEPVRQIYDHKDLAEFLESSAFQDIWDFVERLNCSVRGLSGDALAGPRVPATSLVTAELAALKELAAEVELLPAETGRFGNRAFRTWFSQLQERTPRFTEELLVKSDQTKRYGPDLQAYFLGAFGDPMRIDYGTGHEASFLLFMFCLHRLHLFRAEDFPELVLSVFPAYLATTRYLQQRFTLEPAGSHGVWGLDDYVFLPFLFGSSQLIGKDTEVPPVAARDRELVLELAPKYLYFDTIRFILETKRGPFAEHSPTLYDISGLENWSRINAGLLRMYKAEVWSKLPVIQHIPFGILIPFRSAARTSTERLPAGS	not soluble
METKYAFARQIIKEAGLFIKSKMSEQLDIQVKTQFDDLVTNVDQETQQLLMDRIHQTYPCDAILAEENDVRHPINQGNVWVIDPIDGTVNFIVQGSQFAVMIAYYEQGIGQFGLIYDVMADQLLAGGGDFEVTLNGDKLPAYQEKPLERSLIGCNAGMFARNDRNLAHLIAKTLGVRVYGGAGICMVKVMKQELLAYFSFIQPWDYAAAKVLGDKLGYVLLTIDGYEPDFQTRQKIMFVPKCQLTRIASFLTKDSAITLEDQ	not soluble
MTGWGDHDSLYINPYENRNKLRTYSEYFPIVEVDSSFYAMQPARNYTKWAMETPKDFSFIVKAYQGMTGHMKGEIPFSTFDEMFDVYKQSILPLIEAGKLKTILFQYPPWFDCKKKNVDFLRYTKEKMEGLPCAIEFRNQTWFYPEMRDRTLQFLEQEKWIHTICDEPQAGIGSVPLVLEVTNSDMALIRFHGRNVHGWLDKGENWRAVRCLYRYNNKELEEWVERLEQLKKKTKDIYVLFNNNSGGDAADNAKQLMKMMNITYGEPKPEQLNFFE	not soluble
MGSDKIHHHHHHMQVVYHLGAPCTDADQLIMSLLKNRLRLAQAGIFVPVPGRYRAVIRDTARALKGQPAGKEVQEALLDAIVDDAQVDRLVLSDPRFVCINRLVVQGAQIWPMIERAATGLRALFPEAHVEFFIGMRDPATLIPALFKASRFSDFAEFTENMQPHAVAWSETLRRLQLAHPDCRITAWCNEDTPLLWGEILRELAGVGPEGELDGINDLAVSIMEEEGLKRMGQWFGQNPPKTEAQRRRALTAFLERYAKAGEIEETLNLPGWDEALMAEMSQSYDQDMEVIARLPGVTLLVP	not soluble
MGSDKIHHHHHHMPVMDRAAMRTMATLQPSCMRWLCTTPSILDAAKAGWPISWAATPDSPATVTIRQFQASTCCRKKTFDVVVNTDVLEHVPEAELDCVLRDFRKLSTNAIIIPHLAKATRILPNGENAHCTIKTPSEWAQVFKRHYAHVYELPHHSAVHALFLCGDQERDVTALRGILEQYVAAKNEVRHHLLPLGKRIEKAIRLIRGKDINR	not soluble
MRKKLLSIALCATMVAGIFTGCGSSSDTSKKDEGKSADGKITLNVINYHVGTDYAADYYEYLFDAFKKTEEGKNVEFKFEEIPTTDAYNQKIKLLISSGDLPDIVLNGGNNITALAAKSGKVTDITEYLDKDPEWKAMFSDQDLEFNSYEGKVYGIPVSKEISYIYYNKDLFKKAGLEAPDVAYETWDDFYKACDTLKSKNITPVSMDTADLGWLSNLWYSGLIGTAGEEGNKFMNTMYPTDYTSDLVVNATEQLQKMLKNYTTSDAAGGKYDTMATHFFNSEVAMLPNGPWMIPDFKSTDKAPEGFYDKVGIMLLPGSGMESVPTPGDMVGTKDPEKVKAAVAFLKFETTAENQLKALEMAGLQPVSSNIEVPDSLKESDPLMAEVLDIQSKAKYTYGQNQAYWYQNVIDTFSTQLPELAYGNMTAKEFCQKLTDAAKKN	not soluble
MSLQWAKQSEQNVYSNRWFSVNLADVLLPDGRHLDHFLIRMRPVAVATVVNEADEVLLLWRHRFITDSWGWELAAGVVEDGEDVAVAAARELEEETGWRPGPLHHLMSVEPSNGLTDARHHVYWAEEGTYVGHPVDDFESERREWVPLKLVPDLVARGEVPAANMAAALLLLHHLRLGRDQEGHHHHHH	soluble
MGHNMMTTQKWYEHITNVIIGNTANFNSGCPESIDYVDEKKGVPLAAMKYILMYTEAAASHAYLFEHDLKKFKQYAYVAGKLGILQSVDDEDPEPFFFPCDMLNIQDPMFLMLMSDSPQLREFLVRNIDNIANDTEAFVNRYDLNRHMIYNTLLMVEGKQLDRLKQRSEKVLAHPTPSKWLQKRLYDYRFFLAFAEQDAEAMKAALEPLFDKKTARMAAKETLSYFDFYLQPQIVTYAKIASMHGFDLGIDHEIAPRDLTVYDPLPADEYQDIFDFMKQYDLSYPYEYLQDWIDYYTFKTDKLVFGNAKRE	not soluble
MSLYLIVGAYPSTPQVMKNIKMTSDALKKKESLICLNVLSKYNPEKHSNTSKRLPVKFFSGVLIVLMNTDNWASLEKRFSSEIANWRSGGNVICIAIGELGKFKGNDTYYLKTLQIALMNVDDNWIPADSSYELTMLNYLHKHERSFIKPLRYDASNNDVFPDFCLTDIGSTELFPIEVFGMDTASYLARKVIKESYYNERYGKDGWASWEAPAGPLPICPIRPAVNYQMLLEGHHHHHH	not soluble
MGSDKIHHHHHHMKLICEKELCTGCGLCAARCPKHSISLVAEELGHLYPSVDQKKCIDCGLCQKACPSLHDTVCLYPSVAYAAWSKDEEDYRSSTSGGMASVLTHYFLANVGIVYGCTVIPGIEIKHIRIDNLKDAYKLKGSKYVQSSIVDVLSQIRQDVKDGTNVLFIGTPCQVTAVKRMYEEQPDNLFLVDLICHGVPSNKWLVDYIANTLKIKADKVSSIGFRLFEAFSLCVYNDDRLIYKSGDLWTHRYEDLYYNTFIDGFTYRDSCFNCHYAKPERVSDITIGDFWGLGNETDDNYIPKHPYGISCVLPLTEKGKRLISIVKDKLNIYERPVTEAINGNDQLRFPKKKNLRIKFFRRIHKYIGVDAAYKLCVCDKIVKYKIRKIIR	not soluble
MEYFNVGKIVNTQGLQGEMRVLSVSDFAEERFKKGSQLALFDDKDRFVQEVTIVSHRKQKHFDIIKFKDMYHINAIEKYKGYTLKVSKDNQGDLQEGEFYYHQIIGMAVYEKDVLIGHVKEILQPGANDVWIVKRQGKRDLLLPYIPPVVLNVDVPNKRVDVELMEGLDDEDLEHHHHHH	soluble
MGSDKIHHHHHHMILLVGGEKGGAGKSCLAQNIAVHITQKFNANVLMVDCDPQRTTSDWIQARNEDASLPAINCIQLYGKIRNDLLGLDQRFDYVIVDCGGQDNLAMRAAMSVATYVVLPLRPKRRDLKTLPHMEDMLSTCKMVNPKMVATVVMTQCPALPSQYKRILEAKEVVESFGLRVLDAVTFSRNVYDDSEEQGSSVIEIEPDGKAAAEIRAIADELFAIPPENSYELN	not soluble
MSLVMSGEKMKVIIVEDEFLAQQELSWLINTHSQMEIVGSFDDGLDVLKFLQHNKVDAIFLDINIPSLDGVLLAQNISQFAHKPFIVFITAWKEHAVEAFELEAFDYILKPYQESRIINMLQKLTTAWEQQNNAAEGHHHHHH	soluble
MGSDKIHHHHHHMRRDVFIETRNVMDFRQKVRALEDFSGEPGFALVFGQAGRGKTETARHYHAMNGGIFLRVMQGWSQCAFLQELCFQVCGLRPRSSATCKAKIIEALDSMPQTLFVDEADRLHVDRVEDLRDVFDLTSSTVVLIGEQELRGLLSTRRRIWSRVKQVVEFGPVAEEDVAILGDEAAGLDIAPEACSQIVRLADGDFRLVWSFIHQLELTAKTHGIQQINTELVARVSKLVASWRQQ	not soluble
